Results: US20060294618A1 (CORNELL RESEARCH FOUNDATION, published 2006)
Changes are numbered by the printed parent chain.

T1: TEV-HAT VPg, yeast two-hybrid bait fusion protein expressed from pEG202 (Tobacco etch virus, strain HAT, UniProt P0A7C2 1-202; P04517 1850-2037)
T1 sequence (looked up): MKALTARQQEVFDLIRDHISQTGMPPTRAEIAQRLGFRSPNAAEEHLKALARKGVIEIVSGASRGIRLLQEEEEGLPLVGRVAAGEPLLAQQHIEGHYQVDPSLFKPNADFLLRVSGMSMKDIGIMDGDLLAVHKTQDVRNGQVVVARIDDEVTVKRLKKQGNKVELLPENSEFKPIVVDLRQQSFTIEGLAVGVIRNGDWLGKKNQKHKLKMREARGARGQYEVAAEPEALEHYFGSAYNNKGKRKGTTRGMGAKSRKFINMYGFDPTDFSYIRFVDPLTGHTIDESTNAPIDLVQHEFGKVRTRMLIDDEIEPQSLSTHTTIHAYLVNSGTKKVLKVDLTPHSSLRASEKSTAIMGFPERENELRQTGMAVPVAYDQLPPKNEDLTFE

T2: GST-VPgHAT (Tobacco etch virus, strain HAT, UniProt P04517 1850-2037)
T2 construct: Immobilized on glutathione-Sepharose 4B beads; also called TEV-HAT VPg (GST fusion); not shown: glutathione S-transferase (GST)
T2 sequence (looked up): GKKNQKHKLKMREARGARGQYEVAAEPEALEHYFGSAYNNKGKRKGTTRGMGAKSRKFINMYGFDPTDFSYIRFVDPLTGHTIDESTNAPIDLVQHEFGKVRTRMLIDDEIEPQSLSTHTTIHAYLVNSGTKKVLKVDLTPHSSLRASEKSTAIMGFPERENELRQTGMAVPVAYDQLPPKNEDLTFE

B1: eIF4E-234 mutant translation initiation factor eIF4E (Capsicum chinense PI 159234, pvr1 allele), yeast two-hybrid prey fusion expressed from pJG4-5 (other)
chain: MATAEMEKTTTFDEAEKVKLNANEADDEVEEGEIVEETDDTTSYLSKEIAAKHPLEHSWTFWFDNTVAKSRQAAWGSSLRNVYTFSTVEDFWGAYNNIHHPSKLVVRADLHCFKHKIEPKWEDPVCANGGTWKMSFSKGKSDTSWLYTLLAMIGHQFDHEDEICGAVVSVRGKGEKISLWTKNAANETAQVSIGKQWKQFLDYSDSVGFIFHDDAKRLDRNAKNRYTV
notes: not shown: fusion partner encoded by prey plasmid pJG4-5
B2: eIF4E-DEMP (pvr2^2 / pvr1^2), 35S-labeled, translated in vitro from pET16b (other)
chain: B1 chain with A51T, T66P, V67E, R71K, L79R, R107G, D109N
modifications: 35S-labeled (in vitro translation in reticulocyte lysate)
notes: also called DEMP (pvr1^2); resistant allele
B3: eIF4E-234 (pvr1), 35S-labeled, translated in vitro from pET16b (other)
chain: B1 chain
modifications: 35S-labeled (in vitro translation in reticulocyte lysate)
notes: also called resistant allele
B4: eIF4E-YY (pvr2^1 / pvr1^1), 35S-labeled, translated in vitro from pET16b (other)
chain: B1 chain with A51T, T66P, V67E, R71K, L79R, R107G
modifications: 35S-labeled (in vitro translation in reticulocyte lysate)
notes: also called YY (pvr1^1); resistant allele

What was measured:
[1] = molecular target: T1, TEV-HAT VPg, yeast two-hybrid bait …; assay: yeast two-hybrid, beta-galactosidase assay
Source text: Bait plasmid pEG202 was used to express the fusion protein TEV-HAT VPg. The prey plasmid pJG4-5 was used to express pepper eIF4E. pEG202: Pto and PJG4-5:AvrPto were served as a positive control.

[2] = molecular target: T2, GST-VPgHAT; assay: GST pull-down, 35S-labeled in vitro-translated eIF4E
Procedure: The input protein panel represents equivalent amounts of GST, GST-VPgHAT, and GST-VPgNW used in the pull-downs assay and 20% of in vitro-translated eIF4Es.
GST, GST-VPgHAT, and GST-VPgNW proteins were bound to 10 μl GST-Sepharose beads and resuspended in 195 μl IPAB-gelatin buffer (20 mM HEPES pH7.8, 150 mM KCl, 0.1% gelatin, 0.1% Triton X-100, 0.1% NP-40, 5 mM MgCl₂, 2 mM DTT). TnT translation products (5 μl) were added to prepared GST fusion Sepharose, mixed by end-over rotation at 4° C. for overnight, and washed 3× with 1×PBS buffer containing 2 mM DTT. The Sepharose beads were resuspended in 20 μl SDS-PAGE loading buffer and incubated for 2 min at 100° C. Released proteins were separated by SDS-PAGE. Following electrophoresis, gels were fixed, dried, and exposed to a phosphorimaging screen.

Binder	binding result [1]	binding result [2]
B1	no binding	
B2		no binding
B3		no binding
B4		no binding
